# Assay results: patent US20020192789
# Numbering of substitutions follows the chain as printed.
# B1: recombinant light chain enterokinase (Novagen, Madison, Wis.) (protein)
# chain: IVGGSDSREGAWPWVVALYFDDQQVCGASLVSRDWLVSAAHCVYGRNMEPSKWKAVLGLHMASNLTSPQIETRLIDQIVINPHYNKRRKNNDIAMMHLEMKVNYTDYIQPICLPEENQVFPPGRICSIAGWGALIYQGSTADVLQEADVPLLSNEKCQQQMPEYNITENMVCAGYEAGGVDSCQGDSGGPLMCQENNRWLLAGVTSFGYQCALPNRPGVYARVPRFTEWIQSFLH
# What was measured:
# [1] = biological target: T1, GNYTDRMFI
# T1 chain: GNYTDRMFI
# [2] = biological target: T2, … (negative control test peptide)
# T2 chain: AVLSNVMFI
# [3] = biological target: T3, phage isolate 5-B05 display polypeptide
# T3 chain: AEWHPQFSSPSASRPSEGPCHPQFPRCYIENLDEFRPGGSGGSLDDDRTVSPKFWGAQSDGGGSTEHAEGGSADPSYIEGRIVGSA
# [4] = biological target: T4, GDDDDKIYV (positive control test peptide)
# T4 chain: GDDDDKIYV
# [5] = biological target: T5, DINDDRSLF
# T5 chain: DINDDRSLF
# [6] = biological target: 17 isolates from rounds 2-5 of screening exhibiting the Asp-Arg motif before the scissile bond (P2-P1)
# [7] = biological target: T6, phage isolate 5-H04 display polypeptide
# T6 chain: T3 chain with S43D, L44I, D45N, T49S, V50L, S51F, P52S, K53E, F54S, W55S
# [8] = biological target: T7, GDDDDK-β-naphthylamine
# T7 chain: GDDDDK
# [9] = biological target: T8, phage isolate 5-H11 display polypeptide
# T8 chain: T3 chain with S43M, L44G, R48D, T49K, V50I, S51Y, P52V, K53Y, F54K, W55T
# [10] = biological target: T9, GNYTDRYFI
# T9 chain: GNYTDRYFI
# [11] = biological target: T10, GNYTDRRFI
# T10 chain: GNYTDRRFI
# [12] = biological target: T11, NKAKDRMFI
# T11 chain: NKAKDRMFI
# [13] = biological target: T12, phage isolate 5-A08 display polypeptide
# T12 chain: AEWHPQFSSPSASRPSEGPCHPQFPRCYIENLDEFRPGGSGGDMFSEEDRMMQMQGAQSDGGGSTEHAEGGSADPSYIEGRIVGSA
protein,measurement,setting,value
B1,Cleavage Rate,[1],0.81 nmol/min
same,rate relative to standard substrate,[1],1.8
same,ratio (Va/Vb) against reference peptide GDDDDK-βNA (relative kcat/Km),[1],3.5
same,"enterokinase cleavage (HPLC, mass spectroscopy)",[2],No cleavage occurred with the negative control peptide (SEQ ID NO:198)
same,"enterokinase cleavage rate (phage ELISA, release from streptavidin)",[3],"the cleavage rate for ... 5-H11 (SEQ ID NO:194) was slower than for at least three of the other isolates, i.e., 5-A08 (SEQ ID NO:137), 5-B05 (SEQ ID NO:145) and 5-H04 (SEQ ID NO:188)"
same,Cleavage Rate,[4],0.34 nmol/min
same,rate relative to standard substrate,[4],0.7
same,ratio (Va/Vb) against reference peptide GDDDDK-βNA (relative kcat/Km),[4],1
same,Cleavage Rate,[5],1.43 nmol/min
same,rate relative to standard substrate,[5],3.1
same,ratio (Va/Vb) against reference peptide GDDDDK-βNA (relative kcat/Km),[5],30
same,cleavage at 300 nM enterokinase (phage ELISA),[6],All of the phage isolates were readily cleaved when the enterokinase concentration was raised to 300 nM
same,"enterokinase cleavage rate (phage ELISA, release from streptavidin)",[7],isolate 5-H04 (SEQ ID NO:188) shown in Table 5 was the most readily cut
same,Cleavage Rate,[8],0.46 nmol/min
same,rate relative to standard substrate,[8],1
same,"enterokinase cleavage rate (phage ELISA, release from streptavidin)",[9],the cleavage rate for the (Asp)4-Lys-containing recognition sequence 5-H11 (SEQ ID NO:194) was slower than for at least three of the other isolates
same,Cleavage Rate,[10],0.24 nmol/min
same,rate relative to standard substrate,[10],0.5
same,Cleavage Rate,[11],0.18 nmol/min
same,rate relative to standard substrate,[11],0.4
same,Cleavage Rate,[12],0.26 nmol/min
same,rate relative to standard substrate,[12],0.6
same,"enterokinase cleavage rate (phage ELISA, release from streptavidin)",[13],"the cleavage rate for ... 5-H11 (SEQ ID NO:194) was slower than for at least three of the other isolates, i.e., 5-A08 (SEQ ID NO:137), 5-B05 (SEQ ID NO:145) and 5-H04 (SEQ ID NO:188)"
